{"source": "IntAct's records for PubMed 12128212", "parents": {"B1": {"name": "Protein daughter of sevenless (Drosophila melanogaster (Fruit fly)), Q9VZZ9 (parent)", "chain": "MDRTFYEGWLIKSPPTKRIWRARWRRRYFTLKQGEIPEQFCLEYYTDHNCRKLKGVIDLDQCEQVDCGLRLENRKQKFQYMFDIKTPKRTYYLAAETEADMRDWVNCICQVCHLHDTKQSNELPLGAVGADENRTQHTSSSGGLSNSTQNTTTTSLHSSAGTTAPQASVPNAGGSAQLRRPAVIEEQPMPSNAGNNNSDSVYVNTEYSNRETMLCDANFDQQELLSAAQQQPPPSPATALYLNHSALIQAQAAAAAAEQLQQQQQQAARLAVSANGVVRKLPEHLVLTQQTLAEAAAQQHSSVQASPALSTASGPYIPISECFSGSPRFLPGVPLPGADLAIPNNPTTPLNNLDPKFYDTPRSHNNIGLNLTNDQSYSPKITNLSLQQLANNNASKQRSDSDSESVFTDDDEWAHPLPLRENVDRSTRPSDSSIENESFVLTYSQRFSKMPEEGGAIVPPAEKSSKLAGAASLPEAGDQGTLDKLAKVLKNKNNLILDFKENEKIPRDLPQLSDTENTSPAIVARRNAHSAFIEESYDIPRSHQQPYYNVNQLLGERPVTSPHNSNPIAASTPNLMAADLGAVAAISAAANPGLMGEAQAVASSPTSARTLPRHCYTNAAPTKMEGNVFRYDFMEQADCPPVNRKLKPKVAGGLPVVEDKPPEEFPAKPPVGVDQLTNKLGAAQLQQPIGPPSVDRKCKPNAYKLGNSATMSPATRRSSGAPLSMVLPHETDVHSPAAANAFFHETRTLPRQQHRHHPNSPGSMSVQHQRTASAAAAMMSLTAAAAPKQQAAAQTEHKLQYFDLDVTNKPPLLNRSSMSVGNLYSQGGNGASGMRFAGVEAGGARAPVPSSVVYRSVDFVKTEAFKRIREERESSGNK"}}, "data": [{"variants_of": "B1", "details": "with grap_drome drk", "values": [{"variant": "R644K", "effect of a mutation on the interaction": "decreasing interaction strength"}, {"variant": "R696K", "effect of a mutation on the interaction": "decreasing interaction strength"}, {"variant": "R644K;R696K", "effect of a mutation on the interaction": "disrupting interaction strength"}]}, {"variants_of": "B1", "details": "with grap_drome drk", "remark": "another data set of the same source", "values": [{"variant": "R644K;R696K", "effect of a mutation on the interaction": "disrupting interaction strength"}]}]}
